Paper PMC6954437 (Nucleic Acids Research, 2019)

Assays:
SEC-MALS = biological target: the molecule itself; assay: SEC-MALS
[…] = biological target: the molecule itself; assay: […]
[1] = biological target: T1, Gemin5 cleavage fragment p85, wild type, with C-terminal TAP tag (human, UniProt Q8TEQ6 845-1508); assay: co-IP
T1 sequence: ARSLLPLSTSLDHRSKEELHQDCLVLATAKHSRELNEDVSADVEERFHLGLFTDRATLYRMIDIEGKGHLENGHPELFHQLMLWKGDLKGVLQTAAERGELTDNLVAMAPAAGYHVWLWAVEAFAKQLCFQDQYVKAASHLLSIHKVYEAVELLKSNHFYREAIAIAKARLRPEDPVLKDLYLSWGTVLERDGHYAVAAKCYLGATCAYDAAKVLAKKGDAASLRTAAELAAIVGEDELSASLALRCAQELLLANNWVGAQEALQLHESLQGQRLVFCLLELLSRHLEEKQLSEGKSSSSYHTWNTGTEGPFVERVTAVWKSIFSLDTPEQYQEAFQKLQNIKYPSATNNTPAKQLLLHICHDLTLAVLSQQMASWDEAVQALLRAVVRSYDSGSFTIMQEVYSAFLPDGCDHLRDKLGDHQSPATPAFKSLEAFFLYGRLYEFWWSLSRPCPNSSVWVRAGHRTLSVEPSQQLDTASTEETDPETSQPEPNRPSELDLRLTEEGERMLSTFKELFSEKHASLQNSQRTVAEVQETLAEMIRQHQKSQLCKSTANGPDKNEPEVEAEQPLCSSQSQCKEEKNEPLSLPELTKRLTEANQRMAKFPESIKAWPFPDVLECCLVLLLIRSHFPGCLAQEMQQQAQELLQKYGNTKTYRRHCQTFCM

[2] = biological target: G5-TPR (Gemin5 TPR-like dimerization domain) (Homo sapiens, UniProt Q8TEQ6 807-1097); assay: EMSA

B1: Gemin5 TPR-like domain (residues 807-1097), wild type (domain or fragment)
chain: TPVSSGFEKSKVTINNKVILLKKEPPKEKPETLIKKRKARSLLPLSTSLDHRSKEELHQDCLVLATAKHSRELNEDVSADVEERFHLGLFTDRATLYRMIDIEGKGHLENGHPELFHQLMLWKGDLKGVLQTAAERGELTDNLVAMAPAAGYHVWLWAVEAFAKQLCFQDQYVKAASHLLSIHKVYEAVELLKSNHFYREAIAIAKARLRPEDPVLKDLYLSWGTVLERDGHYAVAAKCYLGATCAYDAAKVLAKKGDAASLRTAAELAAIVGEDELSASLALRCAQELLL
For B1, the “stoichiometry N” value (SEC-MALS) was 2.

B2: Gemin5 TPR-like domain (residues 807-1097) A951E (domain or fragment)
chain: TPVSSGFEKSKVTINNKVILLKKEPPKEKPETLIKKRKARSLLPLSTSLDHRSKEELHQDCLVLATAKHSRELNEDVSADVEERFHLGLFTDRATLYRMIDIEGKGHLENGHPELFHQLMLWKGDLKGVLQTAAERGELTDNLVEMAPAAGYHVWLWAVEAFAKQLCFQDQYVKAASHLLSIHKVYEAVELLKSNHFYREAIAIAKARLRPEDPVLKDLYLSWGTVLERDGHYAVAAKCYLGATCAYDAAKVLAKKGDAASLRTAAELAAIVGEDELSASLALRCAQELLL
For B2, the “stoichiometry N” value ([…]) was 2.

B3: Gemin5, full-length endogenous protein (natural protein)
chain: MGQEPRTLPPSPNWYCARCSDAVPGGLFGFAARTSVFLVRVGPGAGESPGTPPFRVIGELVGHTERVSGFTFSHHPGQYNLCATSSDDGTVKIWDVETKTVVTEHALHQHTISTLHWSPRVKDLIVSGDEKGVVFCYWFNRNDSQHLFIEPRTIFCLTCSPHHEDLVAIGYKDGIVVIIDISKKGEVIHRLRGHDDEIHSIAWCPLPGEDCLSINQEETSEEAEITNGNAVAQAPVTKGCYLATGSKDQTIRIWSCSRGRGVMILKLPFLKRRGGGIDPTVKERLWLTLHWPSNQPTQLVSSCFGGELLQWDLTQSWRRKYTLFSASSEGQNHSRIVFNLCPLQTEDDKQLLLSTSMDRDVKCWDIATLECSWTLPSLGGFAYSLAFSSVDIGSLAIGVGDGMIRVWNTLSIKNNYDVKNFWQGVKSKVTALCWHPTKEGCLAFGTDDGKVGLYDTYSNKPPQISSTYHKKTVYTLAWGPPVPPMSLGGEGDRPSLALYSCGGEGIVLQHNPWKLSGEAFDINKLIRDTNSIKYKLPVHTEISWKADGKIMALGNEDGSIEIFQIPNLKLICTIQQHHKLVNTISWHHEHGSQPELSYLMASGSNNAVIYVHNLKTVIESSPESPVTITEPYRTLSGHTAKITSVAWSPHHDGRLVSASYDGTAQVWDALREEPLCNFRGHRGRLLCVAWSPLDPDCIYSGADDFCVHKWLTSMQDHSRPPQGKKSIELEKKRLSQPKAKPKKKKKPTLRTPVKLESIDGNEEESMKENSGPVENGVSDQEGEEQAREPELPCGLAPAVSREPVICTPVSSGFEKSKVTINNKVILLKKEPPKEKPETLIKKRKARSLLPLSTSLDHRSKEELHQDCLVLATAKHSRELNEDVSADVEERFHLGLFTDRATLYRMIDIEGKGHLENGHPELFHQLMLWKGDLKGVLQTAAERGELTDNLVAMAPAAGYHVWLWAVEAFAKQLCFQDQYVKAASHLLSIHKVYEAVELLKSNHFYREAIAIAKARLRPEDPVLKDLYLSWGTVLERDGHYAVAAKCYLGATCAYDAAKVLAKKGDAASLRTAAELAAIVGEDELSASLALRCAQELLLANNWVGAQEALQLHESLQGQRLVFCLLELLSRHLEEKQLSEGKSSSSYHTWNTGTEGPFVERVTAVWKSIFSLDTPEQYQEAFQKLQNIKYPSATNNTPAKQLLLHICHDLTLAVLSQQMASWDEAVQALLRAVVRSYDSGSFTIMQEVYSAFLPDGCDHLRDKLGDHQSPATPAFKSLEAFFLYGRLYEFWWSLSRPCPNSSVWVRAGHRTLSVEPSQQLDTASTEETDPETSQPEPNRPSELDLRLTEEGERMLSTFKELFSEKHASLQNSQRTVAEVQETLAEMIRQHQKSQLCKSTANGPDKNEPEVEAEQPLCSSQSQCKEEKNEPLSLPELTKRLTEANQRMAKFPESIKAWPFPDVLECCLVLLLIRSHFPGCLAQEMQQQAQELLQKYGNTKTYRRHCQTFCM
In the case of B3, the “fold recruitment against p85-A951E” value [1] is reported as 10 fold.

AATTCCCCAAATTCCAGTGTCTGGGTAAG (ssDNA) [ssDNA H1-24-s (29 nt)]: no binding [2].

B4: dsDNA H1-24-s/H1-24-as (dsDNA)
DNA 1: AATTCCCCAAATTCCAGTGTCTGGGTAAG
DNA 2: TCGACTTACCCAGACACTGGAATTTGGGG
B4: no binding [2].
